Consider 84 variants from the RNAGym collection of RNA variant scans (doi:10.1101/gr.219683.116).

The labels stand for the following.
B1: mRNA-splicing (parent)
chain: AGUUGCUGCUGGGAGCUCCAGCACAGUGAAAUGGACAGAAGGGCAGAGCAA

In this data set the parent is B1. In words: exon inclusion enrichment index; higher = more inclusion; WT1 exon 5 minigene, HEK293.
For C6G U7C U10C, the “exon inclusion enrichment index” value was found to be 3.22.

With C6A U7C C9A U10C G26C U27G, the “exon inclusion enrichment index” value came out at 3.92.

Turning to C6A U7C C9A U10C G26C U27A, the “exon inclusion enrichment index” value is 3.61.

C6A U7C C9A U10C G26C U27C: the “exon inclusion enrichment index” value came to 4.37.

For the variant C6A U7C C9A U10C G41C G42U, the “exon inclusion enrichment index” value is 3.52.

Take C6A U7C C9A U10C G41C G42C: the “exon inclusion enrichment index” value is 3.48.

With C6A U7C C9A U10C G41C G42A, the “exon inclusion enrichment index” value stood at 2.74.

For C6A U7C C9A U10C C44A A45C, the “exon inclusion enrichment index” value turned out to be 4.04.

With C6A U7C C9A U10C C44A A45G, the “exon inclusion enrichment index” value was found to be 4.86.

Take C6A U7C C9A U10C C44A A45U: the “exon inclusion enrichment index” value worked out at 5.42.

For the variant C6A U7C C9A U10C G41U G42C, the “exon inclusion enrichment index” value was determined as 3.58.

As for C6A U7C C9A U10C G41U G42A, the “exon inclusion enrichment index” value was 1.6.

Regarding C6A U7C C9A U10C G41U G42U, the “exon inclusion enrichment index” value was found to be 2.65.

Consider C6G U7G C9A, for which the “exon inclusion enrichment index” value was 0.0321.

Turning to C6A U7C C9A U10C C22U A23U, the “exon inclusion enrichment index” value came out at 2.51.

Regarding C6A U7C C9A U10C C22U A23G, the “exon inclusion enrichment index” value is 3.38.

For the variant C6A U7C C9A U10C C22U A23C, the “exon inclusion enrichment index” value stood at 2.11.

For C6A U7C C9A U10C G33U, the “exon inclusion enrichment index” value was 1.97.

For C6A U7C C9A U10C G33C, the “exon inclusion enrichment index” value amounted to 3.45.

In the case of C6A U7C C9A U10C G33A, the “exon inclusion enrichment index” value came to 0.648.

For C6A U7C G8U C9A U10C, the “exon inclusion enrichment index” value is 2.22.

Regarding C6A U7C G8U C9A U10A, the “exon inclusion enrichment index” value is 0.176.

As to C6A U7C G8U C9G U10C, the “exon inclusion enrichment index” value stood at 1.91.

C6A U7C C9A U10C G28U A29U: the “exon inclusion enrichment index” value stood at 1.26.

As for C6A U7C C9A U10C G28U A29C, the “exon inclusion enrichment index” value was found to be 2.72.

Turning to C6A U7C C9A U10C G28U A29G, the “exon inclusion enrichment index” value is 3.18.

Take C6A U7C C9A U10C G11A G12A: the “exon inclusion enrichment index” value was 2.21.

In the case of C6A U7C C9A U10C G11A G12C, the “exon inclusion enrichment index” value was 2.2.

Consider C6A U7C C9A U10C G11A G12U, for which the “exon inclusion enrichment index” value turned out to be 1.87.

For the variant C6U U7A C9A U10A, the “exon inclusion enrichment index” value was 0.0567.

C6U U7A C9A U10C: the “exon inclusion enrichment index” value turned out to be 0.322.

Regarding C6A U7C G8C C9U U10C, the “exon inclusion enrichment index” value amounted to 2.28.

Consider C6A U7C C9A U10C U27C G28C, for which the “exon inclusion enrichment index” value was found to be 3.85.

On to C6A U7C C9A U10C U27C G28A, for which the “exon inclusion enrichment index” value stood at 3.15.

Regarding C6A U7C C9A U10C U27C G28U, the “exon inclusion enrichment index” value was 2.92.

Turning to C6G U7A C9A U10C, the “exon inclusion enrichment index” value was 0.641.

Turning to C6G U7A C9A U10A, the “exon inclusion enrichment index” value came out at 0.321.

As for C6A U7C C9A U10C G11C G12C, the “exon inclusion enrichment index” value is 2.59.

C6A U7C C9A U10C G11C G12U: the “exon inclusion enrichment index” value was 2.2.

Regarding C6A U7C C9A U10C G11C G12A, the “exon inclusion enrichment index” value came to 2.17.

Consider C6A U7C C9A U10C G46U A47U, for which the “exon inclusion enrichment index” value stood at 3.03.

Regarding C6A U7C C9A U10C G46U A47C, the “exon inclusion enrichment index” value came out at 3.45.

Turning to C6A U7C C9A U10C G46U A47G, the “exon inclusion enrichment index” value is 2.8.

With C6A U7C C9A U10C G46A A47C, the “exon inclusion enrichment index” value is 3.66.

Consider C6A U7C C9A U10C G46A A47U, for which the “exon inclusion enrichment index” value is 2.94.

Take C6A U7C C9A U10C G46A A47G: the “exon inclusion enrichment index” value stood at 1.33.

For the variant C6A U7C C9A U10C G43C, the “exon inclusion enrichment index” value stood at 3.07.

Take C6A U7C C9A U10C G43A: the “exon inclusion enrichment index” value was 4.63.

Regarding C6A U7C C9A U10C G43U, the “exon inclusion enrichment index” value turned out to be 2.81.

Regarding C6U G8C C9U U10C, the “exon inclusion enrichment index” value worked out at 1.11.

For the variant C6A U7C G8C C9G U10C, the “exon inclusion enrichment index” value was 2.26.

As to C6A U7C C9A U10C G38C, the “exon inclusion enrichment index” value was determined as 2.15.

On to C6A U7C C9A U10C G38U, for which the “exon inclusion enrichment index” value amounted to 1.44.

For C6A U7C C9A U10C G38A, the “exon inclusion enrichment index” value was 2.2.

Turning to C6A U7C C9A U10C G15U C16U, the “exon inclusion enrichment index” value turned out to be 3.12.

For the variant C6A U7C C9A U10C G15U C16A, the “exon inclusion enrichment index” value worked out at 2.78.

In the case of C6A U7C C9A U10C G15U C16G, the “exon inclusion enrichment index” value was 3.06.

For C6A U7C U10G, the “exon inclusion enrichment index” value came out at 1.66.

For C6A U7C U10C, the “exon inclusion enrichment index” value turned out to be 3.14.

Turning to C6A U7C U10A, the “exon inclusion enrichment index” value is 0.41.

C6A U7C C9A U10C G42U G43A: the “exon inclusion enrichment index” value worked out at 3.84.

On to C6A U7C C9A U10C G42U G43U, for which the “exon inclusion enrichment index” value turned out to be 3.65.

As to C6A U7C C9A U10C G42U G43C, the “exon inclusion enrichment index” value was 2.05.

Regarding C6A U7C C9A U10C C44U A45C, the “exon inclusion enrichment index” value came out at 3.64.

Consider C6A U7C C9A U10C C44U A45G, for which the “exon inclusion enrichment index” value came to 2.34.

Turning to C6A U7C C9A U10C C44U A45U, the “exon inclusion enrichment index” value was determined as 2.71.

For C6A U7C C9A U10C G12U G13C, the “exon inclusion enrichment index” value was determined as 0.584.

Take C6A U7C C9A U10C G12U G13A: the “exon inclusion enrichment index” value was determined as 1.25.

C6A U7C C9A U10C G12U G13U: the “exon inclusion enrichment index” value stood at 0.542.

As to C6A U7C C9A U10C C22A A23U, the “exon inclusion enrichment index” value is 2.92.

C6A U7C C9A U10C C22A A23G: the “exon inclusion enrichment index” value came to 3.9.

As for C6A U7C C9A U10C C22A A23C, the “exon inclusion enrichment index” value was determined as 3.88.

In the case of C6A U7C C9A U10C G12A, the “exon inclusion enrichment index” value was 3.18.

For C6A U7C C9A U10C G12U, the “exon inclusion enrichment index” value is 2.7.

In the case of C6A U7C C9A U10C G12C, the “exon inclusion enrichment index” value amounted to 3.68.

For the variant C6A U7C C9A U10C U32C, the “exon inclusion enrichment index” value came to 4.44.

On to C6A U7C C9A U10C U32A, for which the “exon inclusion enrichment index” value worked out at 3.06.

Take C6A U7C C9A U10C U32G: the “exon inclusion enrichment index” value came out at 0.701.

Regarding C6A U7C G8A C9U U10C, the “exon inclusion enrichment index” value is 2.34.

Consider C6A U7C C9A U10C C36A A37C, for which the “exon inclusion enrichment index” value amounted to 3.18.

Consider C6A U7C C9A U10C C36A A37G, for which the “exon inclusion enrichment index” value stood at 1.73.

For C6A U7C C9A U10C C36A A37U, the “exon inclusion enrichment index” value came out at 2.17.

For the variant C6A U7C C9A U10C C36U A37C, the “exon inclusion enrichment index” value turned out to be 2.39.

For the variant C6A U7C C9A U10C C36U A37G, the “exon inclusion enrichment index” value worked out at 2.91.
